Experiment [1] addresses human motilin receptor spliced form A (MTL-R1A) (human). Kind of experiment: cell-based or functional assay.
Experiment [2] shares this target. Kind of experiment: displacement of [125I] human motilin from crude membranes of MTL-R1A transfected HEK-293/aeq17 cells.
Experiment [3] shares this target. Kind of experiment: direct radioligand binding on cell membranes of MTL-R1A transfected cells.

On to “1-11 MTL (from UniProt P12872 26-36) (peptide)”, for which the Aequorin Assay (EC50 nM) in experiment [1] amounted to 138 nM. Moreover, the IC50 in experiment [2] amounted to 127 nM.

Substance “1-12 MTL (from UniProt P12872 26-37) (peptide)” returned an Aequorin Assay (EC50 nM) in experiment [1] of 72 nM. The substance further displayed an IC50 in experiment [2] of 14 nM.

On to “1-13 MTL (from UniProt P12872 26-38) (peptide)”, for which the Aequorin Assay (EC50 nM) in experiment [1] is 3.8 nM. The same substance registered an IC50 in experiment [2] of 0.9 nM.

Turning to “1-19 MTL (from UniProt P12872 26-44) (peptide)”, in experiment [1], the Aequorin Assay (EC50 nM) came out at 4.1 nM. In experiment [2], this substance displayed an IC50 of 0.3 nM.

On to “10-22 MTL (from UniProt P12872 35-47) (peptide)”, for which, in experiment [1], the Aequorin Assay (EC50 nM) is over 10000 nM. The substance also displayed an IC50 in experiment [2] of 1100 nM.

As to “Leu 13 MTL (from UniProt P12872 26-115) (peptide)”, the Aequorin Assay (EC50 nM) in experiment [1] was 3.9 nM. For the same substance, the IC50 in experiment [2] was 0.2 nM.

In experiment [3], “[125I]-Tyr7-human motilin (from UniProt P12872 26-47) (peptide)” had a Bmax (fmol/mg protein) of 240 and a Kd of 0.1 nM.

As for “canine motilin (from UniProt P19863 1-22) (peptide)”, the Aequorin Assay (EC50 nM) in experiment [1] was 4.4 nM. In addition, the IC50 in experiment [2] is 0.2 nM.

For the substance “human motilin (MTL) (from UniProt P12872 26-47) (peptide)”, in experiment [1], the Aequorin Assay (EC50 nM) was 2.1 nM and the bioluminescent response, aequorin assay, 100 nM peptide (fold over background) was over 4. In addition, the IC50 in experiment [2] turned out to be 0.5 nM.

The record behind these values is patent publication EP1086117B1.
